{"source": "patent US20260234700", "about": "“MUTANT CAS12J ENDONUCLEASES” (University of Copenhagen, published 2026)", "binders": {"B1": {"name": "CasΦ3 crRNA ; FAM-labelled target dsDNA (5F-NT-TTC-30/3F-T-AAG-30) (ssRNA ; dsDNA)", "RNA": "UAUUGAUUGCCCAGUACGCUGGGACAGCUGGUAAUGGGAUACCUU", "DNA 1": "GTAATTCAGCTGGTAATGGGATACCTTGTGCTACAGC", "DNA 2": "GCTGTAGCACAAGGTATCCCATTACCAGCTGAATTAC"}}, "experiment_in_all_cases": "cleavage_in_vitro; PAM TTC; 5 mM Mg2+", "conditions_in_all_cases": "tags: C-terminal His6; label: 5'-FAM on NT-strand, 3'-FAM on T-strand", "key": {"CasΦ3 K30A": {"target": "T1, CasΦ3 K30A (Biggiephage, K30A)", "T1 chain": "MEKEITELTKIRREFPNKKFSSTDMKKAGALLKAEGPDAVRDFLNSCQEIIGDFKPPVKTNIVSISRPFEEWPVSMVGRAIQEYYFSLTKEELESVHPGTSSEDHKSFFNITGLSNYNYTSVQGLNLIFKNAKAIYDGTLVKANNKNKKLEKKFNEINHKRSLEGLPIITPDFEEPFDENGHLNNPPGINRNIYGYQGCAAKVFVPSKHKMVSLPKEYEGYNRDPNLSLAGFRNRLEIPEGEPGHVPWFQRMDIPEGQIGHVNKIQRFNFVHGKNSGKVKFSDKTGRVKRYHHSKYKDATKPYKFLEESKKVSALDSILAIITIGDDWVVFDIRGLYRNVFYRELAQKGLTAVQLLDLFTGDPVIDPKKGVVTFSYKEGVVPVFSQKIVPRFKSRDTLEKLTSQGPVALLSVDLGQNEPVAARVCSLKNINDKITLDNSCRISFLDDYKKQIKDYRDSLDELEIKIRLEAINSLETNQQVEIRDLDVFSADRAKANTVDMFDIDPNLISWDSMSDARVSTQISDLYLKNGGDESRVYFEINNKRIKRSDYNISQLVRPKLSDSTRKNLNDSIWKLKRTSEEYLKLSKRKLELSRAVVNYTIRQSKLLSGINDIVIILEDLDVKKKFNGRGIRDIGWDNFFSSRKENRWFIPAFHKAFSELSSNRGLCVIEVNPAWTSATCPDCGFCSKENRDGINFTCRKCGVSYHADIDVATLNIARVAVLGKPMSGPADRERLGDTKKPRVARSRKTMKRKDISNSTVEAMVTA"}, "CasΦ3 Q123A": {"target": "T2, CasΦ3 Q123A (Biggiephage, Q123A)", "T2 chain": "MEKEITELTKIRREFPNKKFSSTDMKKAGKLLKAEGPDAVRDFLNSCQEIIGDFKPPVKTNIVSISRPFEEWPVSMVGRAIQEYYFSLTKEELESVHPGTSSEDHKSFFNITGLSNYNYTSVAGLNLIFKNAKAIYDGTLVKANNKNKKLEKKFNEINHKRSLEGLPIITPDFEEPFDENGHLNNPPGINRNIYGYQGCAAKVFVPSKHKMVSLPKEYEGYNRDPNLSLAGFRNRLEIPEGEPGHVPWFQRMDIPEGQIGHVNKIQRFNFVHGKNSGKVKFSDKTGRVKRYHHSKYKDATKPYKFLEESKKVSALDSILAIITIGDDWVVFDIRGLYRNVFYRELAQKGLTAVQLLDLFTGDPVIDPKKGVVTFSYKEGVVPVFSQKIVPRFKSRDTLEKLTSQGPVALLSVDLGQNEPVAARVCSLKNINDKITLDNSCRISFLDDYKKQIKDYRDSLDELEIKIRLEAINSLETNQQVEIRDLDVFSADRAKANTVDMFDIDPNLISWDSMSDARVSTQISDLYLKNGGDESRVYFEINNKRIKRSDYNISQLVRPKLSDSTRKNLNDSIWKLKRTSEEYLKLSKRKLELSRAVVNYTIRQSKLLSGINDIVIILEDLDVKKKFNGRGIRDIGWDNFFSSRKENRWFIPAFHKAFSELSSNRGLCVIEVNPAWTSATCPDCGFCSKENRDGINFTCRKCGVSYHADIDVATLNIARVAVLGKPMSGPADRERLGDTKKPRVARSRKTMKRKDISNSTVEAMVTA"}, "CasΦ3 Q197A": {"target": "T3, CasΦ3 Q197A (Biggiephage, Q197A)", "T3 chain": "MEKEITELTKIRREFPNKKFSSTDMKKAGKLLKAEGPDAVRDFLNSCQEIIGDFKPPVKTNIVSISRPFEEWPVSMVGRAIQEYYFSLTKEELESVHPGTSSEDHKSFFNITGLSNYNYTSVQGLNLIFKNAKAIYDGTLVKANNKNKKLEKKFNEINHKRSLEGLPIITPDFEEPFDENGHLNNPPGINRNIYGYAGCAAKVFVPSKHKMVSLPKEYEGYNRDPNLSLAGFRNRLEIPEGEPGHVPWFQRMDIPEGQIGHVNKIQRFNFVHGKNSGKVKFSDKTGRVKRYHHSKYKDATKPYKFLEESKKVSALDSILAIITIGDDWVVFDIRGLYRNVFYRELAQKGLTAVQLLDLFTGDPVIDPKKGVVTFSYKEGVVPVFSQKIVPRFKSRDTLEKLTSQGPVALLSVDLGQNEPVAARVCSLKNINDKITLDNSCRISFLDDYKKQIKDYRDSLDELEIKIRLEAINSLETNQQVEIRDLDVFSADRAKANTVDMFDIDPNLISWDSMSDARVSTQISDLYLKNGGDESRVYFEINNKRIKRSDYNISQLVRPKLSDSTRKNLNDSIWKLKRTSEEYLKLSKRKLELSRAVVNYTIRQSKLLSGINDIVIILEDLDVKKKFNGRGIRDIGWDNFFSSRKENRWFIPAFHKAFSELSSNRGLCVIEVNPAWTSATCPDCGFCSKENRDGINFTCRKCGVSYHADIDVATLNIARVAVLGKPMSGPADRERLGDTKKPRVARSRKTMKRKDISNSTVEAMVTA"}}, "data": [{"binder": "B1", "values": [{"measurement": "activity", "setting": "CasΦ3 K30A", "result": "~55", "unit": "% reduction vs WT"}, {"measurement": "activity", "setting": "CasΦ3 Q123A", "result": "~90", "unit": "% reduction vs WT"}, {"measurement": "activity", "setting": "CasΦ3 Q197A", "result": "~90", "unit": "% reduction vs WT"}]}]}
